Reference: the nanobody polyreactivity screen of Harvey et al. (2022)

test: yeast display, Sf9 membrane polyspecificity reagent, FACS + sequencing; frameworks hold sequencing errors
Procedure, shortened: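 Nanobodies from a synthetic yeast display library (Saccharomyces cerevisiae BJ5465), induced 36–48 hours with galactose, were stained 1 hour at 4 °C with 10% biotinylated, detergent-solubilized Sf9 membrane reagent, enriched on streptavidin microbeads, then FACS-sorted. Anti-HA (expression) and streptavidin (reagent binding) fluorescence set low and high (top ~1%) gates. Polyreactivity labels come from the gate of origin. Genes were colony-PCR amplified, MiSeq 2 × 250 sequenced and filtered by CDR length.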

Sequence | polyreactivity (PSR sort gate)
QVQLVESGGGLVQAGGILRLSCAASGFTFYRNAMGWYRQAPGKERELVAAISIRSGRTYYADSLKGRFTISRDNAKNSVYLQMNSLKPEDTAVYYCNKVRLPRDPYNYWGQGTQVTVSS | high polyreactivity
QVQLVESGGGLVQAGGSLRLSCAASGSIFFTYAMGWYRQEPGKERELVAAINSSGGSTYYADSVKGRFTISRDNAKNTVYLQMNSLKPEDTAVYYCAAYRYWSTPRYYWGQGTQVTVSS | high polyreactivity
QVQLVESGGGLVQAGGSLRLSCAASGSTFTYYAMGWYRQATGKETELVAAINIGGGGTYYADSVKGRFTISRDNAKNTVYLQMKSLKPEYTAVYYCATDIYFENGFGYWGQGTQVTVSS | low polyreactivity
QVQLVESGGGLVQAGGSLRLSCAASGFTFYGYVMGWSRQAPGKERDLVAAITRGGNTYYADSVKGRITISRDNAKNTVYLQMNSLKPEDTAVYYCARDRSYWDKPRQRDGYWGQGTQVTVSS | low polyreactivity
QVQLVESGGGLVQAGGSLRLSCAASGRTFGSKALAWYRPAPGKERELVAAITGGGSTYYADSVKGRFTISRDNAKNTVYLQMNSLKPEDTAVYYCAARGTSGWYRYGYWGQGTQVTVSS | high polyreactivity
QVQLVESGGGLVQAGGSLRLSCAASGSIFSYYAMGWYRQAPGKERELVAAISYSGSDTYYADSVKGRFTISRDNAKNTVYLQMNSLKPEDTAVYYCAAEDPSYSYDYWGQGTQVTVSS | low polyreactivity
QVQLVESGGGLVQAGGRLRLSCAASGSTFFIYAMRCFRQAPGKERELVAAISSRGGRTYYADSVKGRFTISRDNAKNTVYLQMNSLKPEDTAVYYCYFLIYSKGQAFDYWGQGTQVSVSS | high polyreactivity
QVQLVESGGGLVQAGGSLRLSCAASGRIFRHNTMGWYRQAPGKERELVAGITASGGDTYYADSVKGRFTISRDNAKNTVYLDMNSLKPEDTAVYYCATSQYGYRSWPGLYYWGQGTQVTVSS | low polyreactivity
QVQLVESVGGLVQAGGILRLSCAASGRTFTLNAMGWYRQAPGKERELVATISRRGGSTYYADSVKGRFTISRDNAKNTVYLQMISLKPEDTAVYDCNVDRLGKRYDNWGQGSQVTVSS | low polyreactivity
QVQLVESGGGLVQAGGSLRLSCAASGSIFVFNAMGWYRQAPGKERELVAAISSSGGSTYYADSVKGRFTISRDNAKNTVYLQMNSLKPEDTAVYYCNKRLYYQRWPAAAREYWGQGTQVTVSS | high polyreactivity
QVQLVESGGGLVQAGGSLRLSCAASGSIFPIYAMGWYRQAPGKERELVAAINRSGGSTYYADSVKGRFTISRDNAKNTVYLQMNSLKPEDTAVYYCNADYGYHNQLFWGYYGWSSDHWGQGTQVTVSS | low polyreactivity
QVQLVESGGGLVQAGGSLRLSCAASGRISGRNAMGWYRQAPGKERELVAVITRGDTNYADSVKGRFTISRDNAKNTVYLQMNSLKPEDTAVYYCAKEPLASGWGYDYWGQGTQVTVSS | high polyreactivity
QVQLVESGGGLVQAGGSLRLSCAASGFIFSYNAMGWYRQAPGKERELVAAISSIGSGTYYADSVKGRFTISRDNAKNTVYLQMNSLKPEDTAVYYCAKYLRPRIGSRYYYWGQGTQVTVSS | high polyreactivity
QVQLVESGGGLVQAGGSLLLSCAASGSIFRVYAMGGYRQAPGKESELVAAISVSGSSTYYADSVKGRFTISRDNAKNTVYFQMNCLKREDTAVYYCATKQRRGYWGYITAYARYYWGQGTQVSVSS | high polyreactivity
QVQLVESGGGLVQAGGSLRLSCAASGSTFDYNAMGWYRQAPGKERELVAAITTIGGSTYYADSVKGRFTISRDNAKNTVYLQMNSLKPEDTAVYYCAADLRVWGRSGYDYWGQGTQVTVSS | low polyreactivity
QVQLVESGGGLVQAGGSLRLSCAASGRILYVNTMGWYRQAPGKERELVAGITSRVGSTYYADSVKGRFTISRDNGKNTVYLQMKSLKPEYTAVYYCNARSTWRHRRDQVDFDYWGQGTQVTVSS | low polyreactivity
QVQLVESGGGLVQAGGSLRLSCDASGIIFYYNAMGWYRQAPGKERELVDRINSGGSTNYADSVKGRFTISRDNAKNTVDFQMTSMKPEDTAVYYCAARVRRWSYYGALFEYWGQGTQVTVSS | low polyreactivity
QVQLQESVGGLVQAGGSLRLSCAASGSIFKVVDMGLYRQAPAKEREFVATIGEGGNTYYADSVKGRFTISRDNAKNTVYLQMNSLKPEDTAVYFYAVVLGTSYRYTYWGQGTLVTVSS | low polyreactivity
QGQLVESGGGLVQAGGSLRLSCAASGFSFQYYAMGWSRHAHGKERELVAAINRGGGTHYADSVKGRFTISRDNAKNTVYFQMHSLKPEDTAVYYCNKVYYWPGSRPSRYEYWGQGTQVTVSS | low polyreactivity
QDQLVESGGGLVQAGGSLRLSCAASGLTFQYNTMGWYRQAPGKERELVARINWGGDSTYYADSVKGRFTISRDNAKNTVYLQLYSLKPEVTAVYYCAAPGYSGRYGYYTYYLYVYWGQGTQVTVSS | low polyreactivity
QVQLVESGGGLVEAGVSLRISCAASGRIFAYNTMGWYRQAPGKERELVAAISWRGGSTYYADSVKGRFTISRDNEKNSVHLQRNSLKPEDTAVYYCAVLSSSLTRFDYWGQGSQVTVSS | high polyreactivity
QVQLVESGGGLVPAGGSLRLSCAASGSTFIAYTRGWYRKAPGKERELVAAISGTGGTTYADSVKGRFTISRDNAKNTVYLQMNSLKPEDTAVYYCAAQYRYTYWGQATQVTVSS | low polyreactivity

Sequence | polyreactivity (PSR sort gate)
QVQLVESGGGLVQAGGSLRLSCAASGSMIAFYVMGLYRQAPGKERELVAAINRGGTNTYYADSVKGRFTISRDNAKNTVYLQMNSLKPEDTAVYYCAADGDRSAQRYTGYYYWGQGTQVTVSS | high polyreactivity
QVQIVESGGGLVQAGGSLRLSCAASGRIFQPYAMGWYRQATGKERELVAAITRRAGSTYYADSVKGRFTISRDNANNTVYVQMNSLKPEDTAVYYCAARGLYWAYEMEYWGQGTQVTVSS | low polyreactivity
QFHLVESGRDFVQAAGSLLLSCAASASIFRYYTMGWYRQAPGKETELVATITDRGTSTYDADSVKGRFTLSRESV | high polyreactivity
QVQLVESGGGLVQAGGSLRLSCAASGSIFGLYAMGWYRQAPGKERELVAAITDSTGSTSYADSVKGRFTISRDNAKNTVYLQMNSLKPEDTAVYYCAAGQGRWRHGFDYWGQGTQVTVSS | low polyreactivity
QVQHVESGGGLVQEGGSLRVSCAASGSIFGTNDMGWYRQAPGKERELVAAISSSGASTYYADSVKGRFTISRDNAKNTVYLQMNSLKPEDTAVYYCARGYTYQYSSFYYWGQGTQVTVSS | low polyreactivity
QVQLVESGGGLVQAGGSLRLSCAASGRIFTRNAMGWYRQAPGKERELVAAISNGGRTNYADSVKGRFTISRDNAKYTVYLQMNSLKPEDTAVYYCNARYLPRSTIYDYWGQVTQVTVSS | high polyreactivity
QVQLVESAGGLVQAGGSLRLICAASGSIVASYPKGWYRQAPGKERELVAAISDGGGRTYYADSVKGRFTISRDNAKNTVYLQMNSLKPEDTAVYYCAAYAVYTYRRARVYWGQGTQVTVSS | high polyreactivity
QVQLQESGGLVQAGGLRLSCAASGSVSYQEAMGWYRQAPGKERELVATISFGANTNYADSVKGRFTISRDNAKNTVYLHMNSRKPEDTAVYYCAAESLFDDYYGYWGQGTQVTVSS | low polyreactivity
QVQLVESGGGLVQAGGSLRLSCAASGFTFRYYAMGWYRQAPGKERELVAAISYNGGSTYYADSVKGRFTISRDNAKNTVYLQMNSLKPEDTAVYYCAADGGRRFGYWGQGTQVTVSS | high polyreactivity
QVQLVESGGGLVQAGGSLRLSCAASGRTFGVNAMGWYRQAPGKERELVARNRVSGGRTYYADSVKGRFTISRDNAKNTVYLQMNSLKPEDTAVYYFNAGYTYNRVIWPYYYWGQGTQVTVSS | high polyreactivity
QVQIVESGGGLVQAGGSLRLSWASSGRIFYSNAMGRYRQAPGKERELVAAISYSGDSTYYADSVQGRFTISRDNAKNTGYFQMNSLKPEVTAVYYCAAETYVGEDYWGQGTQETVSS | high polyreactivity
QVQHVESGGGLVQAGRSLRLSCAASGLIYPYVMGWYRQAPGKERELVAAISRSGGRTYYADSVKGRFTISRDNAKNTVYLQMNSLKPEDTAVYYCAAKVDVTGYFDYWGQGTQVTVSS | high polyreactivity
QVQLVESGGGLVQAGGSLRLSCAASGSIFGKYAMGWYRQAPAKERELVAAISDSGSITYYADSVKGRFTISRDNAKNTVYLQMNSLKPEDTAVYYCAAEVKYYQSFKYDYWGQGTQVTVSS | high polyreactivity
QVQLVESGGGLVQAGGSLRLSCAASGFIFDVYAMGWYRQAPGKERELVAAITSGDGTNYADSVKGRFTISRDNAKNTVYLQMNSLKPEDTAVYYCAADDGVTYRGIIFSYWGQGSQVTVSS | low polyreactivity
QVQLVESGGGLVQAGGSLRLSCAASGGTFSRNAMGWYRQAPGKERELVAAITWSGTRTYYADSVKGRFTISRDNAKNTVYLQMNSLKPEDTAVYYCATKGRRSADDTLLDYWGQGTQVTVSS | high polyreactivity
QVQLEESGGGLVQAGGSLRLSCAASGRIFVSNDMGWYRQAPGKERELVAAITWSDDSTHYADSVKGRFTISRDYAKNTVYLQRNSVKPEDTAVYYCNKQRYYSTWRYDYWGQGTQVTVSS | low polyreactivity
QVQLVESRGGLVQAGGSLRLRCAASGFILDTYGIVWYRQAPGKERELVAAIYQSDVSTYYADSVKGRFTISRDNAKNTVYLQMNSLKPEDTAVYYCAADRGVLRWFCQVLYDYWGQGTQVTVSS | low polyreactivity
QVQLVESGGGLVQAGGSLRLSCAASGRIFQRNVMGWYRQAPGKERELVASITGGGTTNYAHSVKGRFTISRDNAKNTVYLPRNSLKPEDTAVYYCNRRQNVGRVSQYEYWGQGTQVTVSS | low polyreactivity
QVQLVESGRGLVQAGGSLRLRCAASGSTFVYNTMGWYRQAPGKEMELVASISSDGNTYYADSVKGRFTISRDNAKNTVYLQMNSLKPEDTAVFYCGARYYYDWRFVGYDYWGQGTQVTVSS | low polyreactivity
QVQLVESGGGLVQAGGSLRLSCAASGFTFTAYAMGWYRQAPGKERELVAAISYRGGRTNYAYSVKGRFTISRDYAKYTVYLQMNSLKPEDTAVYYCAARPRISTREMDYWGQGTQVTVSS | high polyreactivity
QVQLVESGGGLDQAGGSLRLSCAASGFIFDYYAMGWYRQPPWKERELVAAITSGDSTNYADSVKGRFTISRDNAKNTVYLQMNSLKPEDTAVYYCATRFGDRTVSYDSWGQGTQVTVSS | low polyreactivity
